The target in assay [1] is T1, BCMA CAR encoded by circular RNA formed from DNA Template G.
T1 construct: also called Construct G
In words: flow cytometry, live T cells 24 h after electroporation with 50 ng circRNA per 0.1x10^6 T cells; first of two values. The source says:
(§1) Donor T cells were thawed and activated with anti-CD3/CD28 solutions. Three days after activation, the cells were washed. […] Circular RNAs were formed from DNA templates present in Table 28 and/or 30. The cells were given a commercially available soluble BCMA detection reagent containing R-phycoerythrin (PE) fluorophore (e.g., from AcroBiosystems, Delaware), anti-Whitlow PE detection reagent, or anti-G4S linker detection reagent (e.g., G4S-AF647).

Assay [2] deals with T2, BCMA CAR encoded by circular RNA formed from DNA Template J.
T2 construct: also called Construct J
T2 sequence (chain, as listed by the source limits assumed): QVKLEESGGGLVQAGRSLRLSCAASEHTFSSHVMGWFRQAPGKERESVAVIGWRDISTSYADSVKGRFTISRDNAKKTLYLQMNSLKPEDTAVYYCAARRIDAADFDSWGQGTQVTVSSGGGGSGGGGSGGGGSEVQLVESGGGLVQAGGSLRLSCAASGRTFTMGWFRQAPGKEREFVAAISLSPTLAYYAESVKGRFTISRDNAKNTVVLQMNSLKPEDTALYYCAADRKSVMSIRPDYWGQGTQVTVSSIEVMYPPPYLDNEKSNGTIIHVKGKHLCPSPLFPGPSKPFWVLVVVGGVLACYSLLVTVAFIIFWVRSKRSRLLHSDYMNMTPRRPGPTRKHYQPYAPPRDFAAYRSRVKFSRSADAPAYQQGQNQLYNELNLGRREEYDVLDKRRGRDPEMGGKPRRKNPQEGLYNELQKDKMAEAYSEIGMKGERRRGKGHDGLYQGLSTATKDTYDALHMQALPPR
Described as above.
Description: as §1

Assay [3] has as its target T3, BCMA-41BBζ CAR encoded by circular RNA formed from DNA Template A.
T3 construct: also called Construct A
The description is as above.
Description: as §1

Assay [4] concerns the target T4, BCMA CAR encoded by circular RNA formed from DNA Template H.
T4 construct: also called Construct H
Described as above.
Description: as §1

Assay [5] has as its target T5, BCMA CAR encoded by circular RNA formed from DNA Template I.
T5 construct: also called Construct I
The description is as above.
Description: as §1

Assay [6] addresses T6, CD19-CD28ζ CAR encoded by circular RNA formed from DNA Template F.
T6 construct: also called Construct F
The description is as above.
Description: as §1

In assay [7] the target is T1, BCMA CAR encoded by circular RNA formed …. The experiment in a line: flow cytometry, live T cells 24 h after electroporation with 50 ng circRNA per 0.1x10^6 T cells; second of two values.
Description: as §1
For orientation: Flow cytometry measures light scatter and fluorescence of single cells or particles in a stream.

The target in assay [8] is T2, BCMA CAR encoded by circular RNA formed …. Described as above.
Description: as §1

Assay [9] deals with T3, BCMA-41BBζ CAR encoded by circular RNA …. The description is as above.
Description: as §1

Assay [10] concerns the target T4, BCMA CAR encoded by circular RNA formed …. Described as above.
Description: as §1

For assay [11], the target named is T5, BCMA CAR encoded by circular RNA formed …. The description is as above.
Description: as §1

Assay [12] concerns the target T6, CD19-CD28ζ CAR encoded by circular RNA …. Described as above.
Description: as §1

Experimental findings from patent US20250376534A1 (ORNA THERAPEUTICS, published 2025) are described below.

Where no end group is shown, it is not given here.

T1 sequence (chain, as listed by the source limits assumed): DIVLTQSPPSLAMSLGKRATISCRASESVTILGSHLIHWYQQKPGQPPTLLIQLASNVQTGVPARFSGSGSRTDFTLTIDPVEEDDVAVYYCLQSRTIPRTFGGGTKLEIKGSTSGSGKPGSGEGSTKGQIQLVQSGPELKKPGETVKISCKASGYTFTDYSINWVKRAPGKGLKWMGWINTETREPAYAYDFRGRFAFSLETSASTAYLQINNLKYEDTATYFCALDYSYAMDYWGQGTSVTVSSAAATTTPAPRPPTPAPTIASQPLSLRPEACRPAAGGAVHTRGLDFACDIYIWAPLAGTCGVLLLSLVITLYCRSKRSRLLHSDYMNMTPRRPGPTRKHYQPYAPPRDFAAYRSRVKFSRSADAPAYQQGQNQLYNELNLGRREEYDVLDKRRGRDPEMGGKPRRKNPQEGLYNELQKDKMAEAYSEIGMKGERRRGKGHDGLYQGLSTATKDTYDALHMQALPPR
T6 sequence (chain, as listed by the source limits assumed): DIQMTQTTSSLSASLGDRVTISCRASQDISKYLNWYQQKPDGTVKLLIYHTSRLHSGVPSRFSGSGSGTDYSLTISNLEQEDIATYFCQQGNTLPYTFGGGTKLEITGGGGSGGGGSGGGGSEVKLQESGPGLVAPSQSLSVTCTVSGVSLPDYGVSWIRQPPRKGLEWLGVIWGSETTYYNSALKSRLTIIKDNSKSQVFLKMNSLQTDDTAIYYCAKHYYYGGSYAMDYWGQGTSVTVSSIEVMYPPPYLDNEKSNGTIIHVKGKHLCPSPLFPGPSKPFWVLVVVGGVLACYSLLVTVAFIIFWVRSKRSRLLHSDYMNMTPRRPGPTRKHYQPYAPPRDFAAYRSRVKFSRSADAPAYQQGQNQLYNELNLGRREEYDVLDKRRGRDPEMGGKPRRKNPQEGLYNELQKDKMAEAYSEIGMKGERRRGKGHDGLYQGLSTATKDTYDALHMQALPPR
T4 sequence (chain, as listed by the source limits assumed): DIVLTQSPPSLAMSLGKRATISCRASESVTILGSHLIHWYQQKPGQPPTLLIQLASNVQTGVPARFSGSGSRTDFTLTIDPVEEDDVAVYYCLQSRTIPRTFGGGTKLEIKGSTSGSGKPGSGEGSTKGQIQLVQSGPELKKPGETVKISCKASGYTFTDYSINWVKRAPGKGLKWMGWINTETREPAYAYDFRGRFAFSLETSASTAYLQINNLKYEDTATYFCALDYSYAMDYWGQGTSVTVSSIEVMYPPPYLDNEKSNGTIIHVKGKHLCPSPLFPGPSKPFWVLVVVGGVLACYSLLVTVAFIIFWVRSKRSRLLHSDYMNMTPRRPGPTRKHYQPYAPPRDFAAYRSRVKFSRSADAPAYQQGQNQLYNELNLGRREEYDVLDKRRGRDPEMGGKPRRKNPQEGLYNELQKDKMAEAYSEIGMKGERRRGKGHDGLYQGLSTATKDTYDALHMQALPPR
T3 sequence (chain, as listed by the source): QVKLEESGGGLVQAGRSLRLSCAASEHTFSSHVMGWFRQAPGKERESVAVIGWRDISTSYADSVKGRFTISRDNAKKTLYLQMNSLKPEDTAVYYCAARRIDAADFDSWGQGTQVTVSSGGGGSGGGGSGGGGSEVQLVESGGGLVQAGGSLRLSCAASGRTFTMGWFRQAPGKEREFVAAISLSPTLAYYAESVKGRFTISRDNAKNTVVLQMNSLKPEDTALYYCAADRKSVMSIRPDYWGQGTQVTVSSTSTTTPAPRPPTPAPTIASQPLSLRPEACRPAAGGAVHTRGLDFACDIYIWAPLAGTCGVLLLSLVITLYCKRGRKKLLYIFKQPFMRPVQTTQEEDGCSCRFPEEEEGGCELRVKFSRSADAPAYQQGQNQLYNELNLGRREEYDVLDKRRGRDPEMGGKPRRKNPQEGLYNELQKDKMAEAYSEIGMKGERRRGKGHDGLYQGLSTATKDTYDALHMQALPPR
T5 sequence (chain, as listed by the source limits assumed): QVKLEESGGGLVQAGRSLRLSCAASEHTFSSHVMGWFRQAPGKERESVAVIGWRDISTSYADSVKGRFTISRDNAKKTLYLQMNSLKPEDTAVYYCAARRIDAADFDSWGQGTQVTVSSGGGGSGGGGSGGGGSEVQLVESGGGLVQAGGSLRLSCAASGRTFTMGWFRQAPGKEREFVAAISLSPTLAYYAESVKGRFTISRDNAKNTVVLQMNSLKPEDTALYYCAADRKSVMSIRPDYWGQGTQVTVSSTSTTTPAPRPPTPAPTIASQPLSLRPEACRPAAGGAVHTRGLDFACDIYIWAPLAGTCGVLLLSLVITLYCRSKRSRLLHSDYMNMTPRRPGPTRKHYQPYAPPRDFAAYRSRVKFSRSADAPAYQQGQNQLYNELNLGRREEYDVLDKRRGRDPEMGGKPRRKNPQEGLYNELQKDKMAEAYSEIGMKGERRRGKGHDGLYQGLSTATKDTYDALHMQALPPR

B1: soluble BCMA detection reagent containing R-phycoerythrin (PE) fluorophore (receptor, UniProt Q02223 1-54, looked up)
chain: MLQMAGQCSQNEYFDSLLHACIPCQLRCSSNTPPLTCQRYCNASVTNSVKGTNA
modifications: cysteine pairing not given here; also: conjugated to R-phycoerythrin (PE) fluorophore, site not given here
notes: also called soluble BCMA-PE; sBCMA-PE
With B1, the gMFI in assay [1] came to 18200; in assay [2], 84700; in assay [3], 61500; in assay [4], 57800; in assay [5], 57400; in assay [6], 71.7. Further, the gMFI in assay [7] was 18900; in assay [8] it was 93400; in assay [9], 66300; in [10], 59700; in [11], 58000; in assay [12] it was 81.5.
